B1: E. coli ExbB (natural protein)
chain: MGNNLMQTDLSVWGMYQHADIVVKCVMIGLILASVVTWAIFFSKSVEFFNQKRRLKREQQLLAEARSLNQANDIAADFGSKSLSLHLLNEAQNELELSEGSDDNEGIKERTSFRLERRVAAVGRQMGRGNGYLATIGAISPFVGLFGTVWGIMNSFIGIAQTQTTNLAVVAPGIAEALLATAIGLVAAIPAVVIYNVFARQIGGFKAMLGDVAAQVLLLQSRDLDLEASAAAHPVRVAQKLRAG
notes: ExbB, E. coli; also called EcExbB; ExbBA

Legend:
E. coli ExbB = biological target: B1; assay: cryo-EM structure; TonB-ExbBD complex, co-expressed and co-purified, in amphipol PMAL-C12 (Tris 30 mM pH8.0 NaCl 170 mM EDTA 1 mM); 300 keV; consensus map 2.8 A and two further classes at 3.2 A; details: both partners purified
[1] = biological target: the molecule itself; assay: as above
[2] = biological target: the molecule itself; assay: cryo-EM structure; TEV-digested TolATEVQR complex, co-expressed and co-purified, in LMNG (Hepes/NaOH 30 mM pH7.5 NaCl 150 mM EDTA 1 mM LMNG 0.002%), second SEC peak; 300 keV; two 3D classes (TolATEVQR-I 2.94 A, TolATEVQR-II 3.18 A)

Row | Binder | stoichiometry N [1] | also measured
1 | E. coli TonB with C-terminal TEV site and streptag-II (natural protein, TonB, E. coli; only the transmembrane helix (residues 10 to 32) was built, the periplasmic domain is not visible; also called EcTonB; TonBF) MTLDLPRRFPWPTLLSVCIHGAVVAGLLYTSVHQVIELPAPAQPISVTMVTPADLEPPQAVQPPPEPVVEPEPEPEPIPEPPKEAPVVIEKPKPKPKPKPKPVKKVQEQPKRDVKPVESRPASPFENTAPARLTSSTATAATSKPVTSVASGPRALSRNQPQYPARAQALRIEGQVKVKFDVTPDGRVDNVQILSAKPANMFEREVKNAMRRWRYEPGKPGSGIVVNILFKINGTTEIQ |  | stoichiometry N (E. coli ExbB): 1 TonB per five ExbB
2 | E. coli ExbD with C-terminal TEV site and 10his-tag (natural protein, ExbD, E. coli; model built from Asp11 through the transmembrane helix (21-42), periplasmic domain not visible; No TEV digestion is described in the purification of TonB-ExbBD, so the tag was probably still on the chain; also called EcExbD; ExbDY) MAMHLNENLDDNGEMHDINVTPFIDVMLVLLIIFMVAAPLATVDVKVNLPASTSTPQPRPEKPVYLSVKADNSMFIGNDPVTDETMITALNALTEGKKDTTIFFRADKTVDYETLMKVMDTLHQAGYLKIGLVGEETAKAK | 2 | 
3 | B1 | 5 | 
4 | E. coli TolQ (natural protein, UniProt P0ABU9 1-230, looked up, TolQ, E. coli; residues 2-225 built in the structure; also called EcTolQ; TolQA) MTDMNILDLFLKASLLVKLIMLILIGFSIASWAIIIQRTRILNAAAREAEAFEDKFWSGIELSRLYQESQGKRDNLTGSEQIFYSGFKEFVRLHRANSHAPEAVVEGASRAMRISMNRELENLETHIPFLGTVGSISPYIGLFGTVWGIMHAFIALGAVKQATLQMVAPGIAEALIATAIGLFAAIPAVMAYNRLNQRVNKLELNYDNFMEEFTAILHRQAFTVSESNKG |  | stoichiometry N [2]: 5

Source: article PMC12215075, “Cryo-EM structures of the E. coli Ton and Tol motor complexes” (Nature Communications, 2025)
